Laboratory results taken from patent US20150010495A1.

Biological target: […]n, n = 5 (100-mer), non-glycosylated (human)
Test: peptide ELISA, OD 492 nm; limit of the class, member by Table 2; reference: 20-mer

Chain of […]n, n = 5 (100-mer), non-glycosylated (human) (peptide, as listed by the source): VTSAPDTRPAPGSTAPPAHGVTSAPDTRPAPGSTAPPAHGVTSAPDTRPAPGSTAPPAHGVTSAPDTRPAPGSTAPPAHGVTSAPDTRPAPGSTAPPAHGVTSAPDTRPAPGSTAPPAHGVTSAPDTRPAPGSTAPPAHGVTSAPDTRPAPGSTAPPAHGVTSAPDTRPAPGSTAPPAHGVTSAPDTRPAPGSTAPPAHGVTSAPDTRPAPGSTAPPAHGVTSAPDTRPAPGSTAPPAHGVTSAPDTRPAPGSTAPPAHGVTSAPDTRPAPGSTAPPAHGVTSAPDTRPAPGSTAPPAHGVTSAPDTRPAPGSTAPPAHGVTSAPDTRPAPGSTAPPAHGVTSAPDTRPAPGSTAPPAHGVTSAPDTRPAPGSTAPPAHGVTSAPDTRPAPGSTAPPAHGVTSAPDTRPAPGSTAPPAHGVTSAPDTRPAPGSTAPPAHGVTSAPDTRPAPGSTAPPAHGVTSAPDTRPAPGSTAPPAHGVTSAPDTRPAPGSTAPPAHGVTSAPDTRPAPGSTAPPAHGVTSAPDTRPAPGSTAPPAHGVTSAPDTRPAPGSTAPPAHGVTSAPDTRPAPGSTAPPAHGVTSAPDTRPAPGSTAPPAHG

Row | Substance | ratio of the optical density 100-mer/20-mer
1 | 214D4 (antibody) | 1.5 to 3
2 | B27.29 (antibody) | 1.5 to 3
3 | BC2 (antibody) | > 3
4 | C595 (antibody) | < 1.5
5 | E29 (antibody) | 1.5 to 3
